Measured values published in the nanobody polyreactivity screen of Harvey et al. (2022).

Assay: yeast display, Sf9 membrane polyspecificity reagent, FACS + sequencing; frameworks hold sequencing errors
Outline: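 Nanobodies came from a synthetic yeast display library in Saccharomyces cerevisiae BJ5465, induced with galactose for 36–48 hours and stained for 1 hour at 4 °C with 10% biotinylated, detergent-solubilized Sf9 membrane reagent. Cells were enriched on streptavidin microbeads and then FACS-sorted, with low and high (top ~1%) gates set on anti-HA fluorescence for expression and streptavidin fluorescence for reagent binding. Each polyreactivity label reflects the gate a clone came from. Genes were amplified by colony PCR, sequenced by MiSeq 2 × 250 and filtered by CDR length.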

| Sequence | polyreactivity (PSR sort gate) |
| --- | --- |
| QVQLVESGGGLVQAGCNLRISCAASGSTFTLYAMGWYRQAPGKERELVAGITYSGGSTFYADSVKGRFTISRDNAKNTVYLQMKSVKPEDTAVYFCGDVYVPYYWLGRSRGLYYWGQGTQVTVSS | high polyreactivity |
| QVQLVESGGGLVPAGGSLRLSCAASGYIFDYNAMGWYRQAPGKERELVAAITFRDGSTYADSVKGRFTISRDNAKNTVYLQMNSLKPEDTAVYYCNRRSQVHSHSKHDYWGQGTQVTVSS | low polyreactivity |
| QVQLVESGGGLVQAGGSLRLSCAASGRIFYRYAMGWYRQAPGKERELVATITSGGRTKYADSVTGRFTIARDNAKNTVYLQMNSLKPEDTAVYYCNAYVYSGYSIRDYWGQGTQVTVSS | high polyreactivity |
| QVQLVESGGGLVQAGGSLRLSCAASGSTFLYYTMGWYRQAPGKERELVAAITGSGTSTYYADSVKGRFTISRDNAKNTVYLQMNSLKPEDTAVYYCAARGHGRLYYWGHGTQVTVSS | high polyreactivity |
| QVQLVESGGGLVQAGGSLRLSCAASGFIFVPNTMGWYRQAPGKERELVAAITSVGSTNYADSVKGRFTISRDNAKNTVYLQMNSLKPEDTAVYYCPATLYYQYGGDYWGQGTQVTVSS | low polyreactivity |
| QVQLVESGGGLVQAGGSLRLSCAASGIIYKYAMGWYRQAPGKERELVATITWSDGSTYYADSVKGRFTISRDNAKNTVYLQMNSLKPDDTAVYYCAADDYYGYDYWGQGTQVTVSS | low polyreactivity |
| QVQIVESGGGLVQAGGSLRLSCAASGFTFRGYAMGCYRQAPAKERELVAAISRSGGSTNYADSVKGRFTISRDNAKNTVYLKMNSMKPEDTAVYYCAAGWNPYDYWGQGTQVTVSS | high polyreactivity |
| QVQLVESGGGLVQAGGSLRLSCAASGSIFINNGMGWYRQAPGKERELVAAINGGDGSTYYADSVKGRFTISRDNAKNTVYLQMNSLKPEDTAVYYCAKDYTIGYTYQYDYWGQGTQVTVSS | low polyreactivity |
| QVQLVESGGGLVQAGGSLRLSCAASGSIVGSNAMGWYRQAPGKERELVAAITWSDGSPYYADSVKGRFTISRDNAKNTVYLQMNRLKPEDTAVYVCATDYGYSWYDYWGQGTQVTVSS | low polyreactivity |
| QVQLVESGGGLVQAGGSLRLSCAASGSTFSSYVMGWYRQAPGKERELVAGITRGGRTYYADSVKGRFTISRDNAKNTVYLQMNSLKPEDTAVYYCNARDGVTTEFDYWGQGTQVTVSS | low polyreactivity |
| QVQLVESGGGLVQAGGSLRLSCAASGSTIVYYAMGWYRQAPGKERELVAAINYSSGSTYYADSVKGRFTISRDNSKNTVYLQMNSLKPEDTAVYYCATDLLYYQYYSEYDYWGQGTQVTVSS | high polyreactivity |
| QVQLVESVVGLVQAGGSLRLSCAASGGTFSFNAIGWYRQAPGKETELVAAITQTGDGTYYADSVKGRFTISRDNAKNSVYLQMNIMKPEDTAVYYCNTDSIPFVPWFRFDYWGQGTQVTVSS | low polyreactivity |
| QVQLVESGGGLVQAGGSLRLSCAASGSILVHYSMGWYRQAPGKERELVAAISRGGSTNYADSVKGRFTISRDNAKNTVYLQMNSLKPEDTAVYYCAARRPWGEYYWGQGTQVTVSS | low polyreactivity |
| QVQLVESGGGLVQAGGSLRLSCAASGFIFRVNAMGWYRQAPGKEREFVAAITYSGGRTSYADSVKGRFTISRDNAKNTVYLQMNSLKPEDTAVYYCAALLYKPSVHAKYYYWGQGTQVTVSS | high polyreactivity |
| QVQLVESGGGLVQAGGSLRLSCASSGSTFDINAMGWYTQAPGKARELVAAITCGGGTNYADSVKGRFTISRDNAKNTVYLEMNSLKPEDTAVYYCAAVYYSTDYYFWYDYWGQGTQVTVSS | low polyreactivity |
| QVQLVESAAGLVQAGGSLRLSCAASGITFFQYTMGWYRQAPGKERELVAAISTSGARTYYADSVKGRFTISRDNAKNTVYLQMNSLKPEDTAVYYCAARTWRRPYYRPRYEYWAQGTQVTVSS | high polyreactivity |
| QVQLVESGGGLVQAGGSLRLTCAASGSTSGQNAMGRYRQAPGNERELVAAISSSAGSTYADSVKGRFTISRDNAKNTVYLQMNSLKPEDTAVYYCNVPYYYTRGSYGYWGQGTQVTVSS | low polyreactivity |
| QVQLVESGGGLVQAGVSLRLSCAASGSIFYEYAMGWYRQAPGKEREFVAAISSSGGSTYYADSEKGRFTISRDNAKNSVYLQMNSLKPEDTAAYYCNAQVGGVSFEYDYWGQGTQVTVSS | low polyreactivity |
| QVQLVESGGVLVQAGGSLRLSCAASGSIFRGYAMGCYRQAPGKERELVAAINTSGGRTYYADSVKGRFTISRDNAKNTVYLQMIRLKPDDTAVYYCATEYYQAKREDYWGQGTQVTVSS | high polyreactivity |
| QVQLVESGVGLVQAGGSLRLSCDATGSILGINVMGWYRQAPGKEREVVAAISRRGGSTYYADSVKGRFTISRDNSKNTVYLQMNSLKPEDTAVYYCAAGTSYYYGSYRFYYWGQGTQVTVSS | high polyreactivity |
| QVQLVESGGGLVQAGGSLRLSCAASGRIFRGYAMGWYRQAPGKERELVARITSSGSTNYADSVKGRFTISRDNAKNTVYLQMNSLKPEDTAVYYCAADKYYWGTGVWMDYWGQGTQVTVSS | high polyreactivity |
| QVQLVESGGGLVQAGGSLRLSCAASGITFARYAMGWYRQAPGKERELVAAISRNAGRTYYADSVKGRFTISRDNAKNTVYLQMNSLKPEDTAVYYCAAVTKSSVPGSRYDYWGQGTQVTVSS | high polyreactivity |

| Sequence | polyreactivity (PSR sort gate) |
| --- | --- |
| QVQLVESGGGLVPAGGSLRLSCAASGRTFFPYAMAWYRQAPGKEREFVAAITWSGGSTTYADSVKGRFTISRDNAKNTVYLQMNSLKPEDTAVYYCNAGRRRSYSYDYWGQGTQVTVSS | low polyreactivity |
| QVQLVESGGCIVQAGGSLRLSCAASGNIFYRNAMGWYRQAPGKERELVAAISSGGITYYADYVKGRFTISRDNAKNTVYLQMNSLKPDDTAVYYCAAYIRNCRATYEYWGPGTQVTVSS | high polyreactivity |
| QVQLVESGGGLVHPGGSLRLSCDASGLILDGYAMGWYRQAPGKERELVAAITRSGGRTYYADSVKGRFTISRDNAKNTVNLQKNRQKPVDTAVYHSAALGWSGRYRYDYWGQGTQVTVSS | high polyreactivity |
| QVQLVESGGGLVQAGGSLRLSCAASGITFEGYAMGWYRQAPGKERELVAAIRSSGTSTYYADSVKGRFTISRDNAMNTVYLQMNSLKPEDYAVYYCNRARSSSRYDYWGQGTQGTVSS | low polyreactivity |
| QVQLVESGGGLVQAGGSLRLSCAASGSTFDYNAMGWYRQAPGKERELVATISSSVGSTYYADSVKGRFTISRDNAKNTVNLQMNSLKPEDTAVYYCNSDYVAYGPEYDYWGQGTQVTVSS | low polyreactivity |
| QVQLVESGGGIVQAGGSLRLICAASGRTFKYYAMGWYRQAPGKERELVAAIRSRTGSTYYADSVKGRFTISRDNAKNTVYLQMNSLKPVDTAVYYCAAQPGSYYGPRWYYDDDYWGQGTQVTVSS | high polyreactivity |
| QVQLVESGGGLVQAGGSLRFSCAASGRIFRYNAMGWYRQAPGKARELVAAISRSGGSTYYADSVKGRFTISRDNAKNTVYLQMISLKPEDTAVYYCAVGSPYGGRAPCVRGGDYWGQGTQVTVSS | high polyreactivity |
| QVQLVESGGGLVQAGGSLRLSCAASGRIFVVNAMGWYRQAPGKERELVAAITRRGGSTYADSVKGRFTISRDNAKNTVYLQMNSLKPEDTAVYYCNAESYSGIFSYKYDYWGQGTQVTVSS | high polyreactivity |
| QVQLVESGGGLVQAGGSLRLSCAASGRTFSRNAMGWYRQAPGKERELVAAITYSGGTTYYADSVKGRFTISRDNAKNTVYLQMNSLKPEDTAVYYCATPSRKSGVGYPSYNYWGQGTQVTVSS | high polyreactivity |
| QVQLVESGGGLVQAGGSLRLSCAASGRTLGFYAMGWYRQAPGKEREFVAAISSSVGRTYYADSVKGRFTISRDNAKNTVYLQMNSLKPEDTAVYYCAADRTDTSNYWGQGTQVTVSS | high polyreactivity |
| QVQLVESGGGLVQAGGSLRLSCAASGSTFFPYAMGWYRQAPGKERELVAAITSGGRTKYADSVKGRFTISRDNAMNTVYLQMNSLKPEDTAVYYCAARGLIKEYGGPYRRFGYWGQGTQVTVSS | high polyreactivity |
| QVQLVESGGGLVQAGGSLRLSCAASGRIFKPYAMGWYRQAPGKERELVASISRRGGSTYYADSVKGRFTISRDNAKNTVYLQMNSLKPEDTAVYYCNASGTYISLGYDYWGQGTQVTVSS | high polyreactivity |
| QVQLVESGGGLVQAGGSLRLSCAASGRTFPENAKGWYTQAPGKEREFVAVISSGGGSTTYADSVKGRFTISRDNAKNTVYLQMNSLKPEDTAVYYCATEYYFHGYWITYSWGQGTQVTVSS | low polyreactivity |
| QVQLVESGGGLVQAGGSLRLSCAASGSIFGPYAMGWYRQAPWKERELVATSTYYADSVKGRFTISRDNAKNTVYLQMNSLKPEDTAVYYCAKTPYYSGYGWGYDYWGQGTQVTVSS | low polyreactivity |
| QVQLVESGGGLVQAGGSLRLSCAASGSTFGKYVMGWYRQAPGKERELVAAISRSGGSTYYADSVKGRFTISRDNAKNTVYFQMNSLKPEDTAVYYCATVGYGYDYWGQGTQVTVSS | high polyreactivity |
| QVQLEESGGGFVQAGGCLRLSCAASGRIFYGYAMGWYRQAPGKERELVAAITRSSSTYYADSVKGRFTISRDNAKNTVYLQMNSQKPEDTAVYYCAAVMYATRPVYGFESWGLGTQVTVSS | high polyreactivity |
| QVQLVESGGGLVQAGGSLRLSCAASGSTFPYYAMGWYRQAPGKERELVASIRKRGGGTYYADSVKGRFTISRDNAKNTVYLQMNSLKPEDTAVYYCAVRVYQFRYTGYDYWGQGTQVTVSS | high polyreactivity |
| QVQLVESGGGLVQAGGSLRLSCASSGFNFVYYSMGRYRQAPGKEREFVAAITERGGSTDYADSVKGRFTISRDHAKNTVYFQMNSLKPEDTAVYYCIARDVTLWDDVYQQDGSGYWGQGTQVTVSS | low polyreactivity |
| QVQLVESGGGLVEAGGSLRLSCAASGFTFHYYTMGWYRQAPVKERELVASINYSGGRTYYADSVKGRFTISRDIAMNTVYLQMNSLKPEDTAVYYCNARYKSTYYYWGQGTQVTVSS | high polyreactivity |
| QVQLVESGGGLVQARGSLRLSCAASGSIFGYNVMGWYRQAPGIERELVAAITVNGGRTYYADSVKGRFTISRDNAKNTVYLQMNSLIPEDTAVDDCAARVTGTQRSGYYWGQGTQVTVSS | high polyreactivity |
| QVQLVDSRGGLVQAGGSLRLSCAASGFIFSRYAMGWSRQAPGKERELVAAISYRGGSTYYADSVKGRFTISRDNAKNPVYLQMNSLKPEDTAVYYCAASLRYYGLEMDYWGQGTQVTVSS | high polyreactivity |
